# Measured values from article PMC8034623.
# Read-outs that look alike come from different tables or passages of the source.
# T1: LuxR R9/11A (Vibrio alginolyticus, UniProt B4X9Q4 1-204, R9A;R11A)
# T1 sequence: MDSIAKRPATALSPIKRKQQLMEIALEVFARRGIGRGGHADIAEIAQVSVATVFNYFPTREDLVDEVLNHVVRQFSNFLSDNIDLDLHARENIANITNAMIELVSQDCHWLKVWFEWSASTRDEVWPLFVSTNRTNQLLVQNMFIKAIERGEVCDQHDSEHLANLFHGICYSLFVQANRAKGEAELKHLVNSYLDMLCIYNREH
# T2: LuxR (Vibrio alginolyticus, UniProt B4X9Q4 1-204)
# T2 sequence: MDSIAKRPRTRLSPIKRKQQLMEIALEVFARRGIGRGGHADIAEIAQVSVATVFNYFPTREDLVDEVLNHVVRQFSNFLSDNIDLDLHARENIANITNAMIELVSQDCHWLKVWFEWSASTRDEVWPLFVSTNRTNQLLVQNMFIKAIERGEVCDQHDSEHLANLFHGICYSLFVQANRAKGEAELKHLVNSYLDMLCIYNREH
# T3: LuxR ΔLuxR-arm (Vibrio alginolyticus, UniProt B4X9Q4 12-204, del2-11)
# T3 sequence: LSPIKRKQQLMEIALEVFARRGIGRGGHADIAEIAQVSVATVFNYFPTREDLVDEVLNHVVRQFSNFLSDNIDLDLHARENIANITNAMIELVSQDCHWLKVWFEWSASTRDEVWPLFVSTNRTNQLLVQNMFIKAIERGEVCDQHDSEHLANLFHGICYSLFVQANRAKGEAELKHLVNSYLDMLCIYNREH
# T4: LuxR K16A (Vibrio alginolyticus, UniProt B4X9Q4 1-204, K16A)
# T4 sequence: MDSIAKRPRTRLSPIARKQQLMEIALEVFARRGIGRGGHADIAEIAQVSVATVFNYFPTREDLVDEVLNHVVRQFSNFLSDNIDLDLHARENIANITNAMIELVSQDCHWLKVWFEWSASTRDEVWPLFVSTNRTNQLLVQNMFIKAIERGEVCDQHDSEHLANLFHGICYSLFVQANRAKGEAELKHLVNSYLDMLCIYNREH
# T5: LuxR R9A (Vibrio alginolyticus, UniProt B4X9Q4 1-204, R9A)
# T5 sequence: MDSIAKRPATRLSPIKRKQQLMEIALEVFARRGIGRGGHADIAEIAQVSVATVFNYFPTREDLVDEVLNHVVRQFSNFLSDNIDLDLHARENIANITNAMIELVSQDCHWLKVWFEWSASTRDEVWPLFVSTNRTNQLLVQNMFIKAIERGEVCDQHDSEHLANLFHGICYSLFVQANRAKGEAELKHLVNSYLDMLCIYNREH
# T6: LuxR R11A (Vibrio alginolyticus, UniProt B4X9Q4 1-204, R11A)
# T6 sequence: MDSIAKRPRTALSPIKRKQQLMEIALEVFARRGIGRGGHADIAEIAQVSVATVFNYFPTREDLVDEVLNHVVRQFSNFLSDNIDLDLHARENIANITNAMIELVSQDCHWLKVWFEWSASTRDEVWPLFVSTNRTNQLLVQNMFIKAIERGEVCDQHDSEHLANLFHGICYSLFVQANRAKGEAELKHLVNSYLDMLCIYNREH
# Experiments:
# Experiment in all cases: EMSA
# [1] = molecular target: T1, LuxR R9/11A
# [2] = molecular target: T2, LuxR
# [3] = molecular target: T3, LuxR ΔLuxR-arm
# [4] = molecular target: T4, LuxR K16A
# [5] = molecular target: T5, LuxR R9A
# [6] = molecular target: T6, LuxR R11A
# [7] = molecular target: T2, LuxR; remark: listed apart in the source
# [8] = molecular target: T2, LuxR; remark: listed apart in the source
binder,measurement,setting,value
actDNA 51-bp probe (dsDNA) DNA 1: CTAAATTTATCAATAATAATGACATTACTGTATATAAATTGTTCTACAGAT DNA 2: ATCTGTAGAACAATTTATATACAGTAATGTCATTATTATTGATAAATTTAG,binding result,[1],no binding
same,Kd,[2],449 nM
same,binding result,[3],no binding
same,Kd,[4],329 nM
same,Kd,[5],698 nM
same,binding result,[6],no binding
AM7 (A3C) (dsDNA) DNA 1: CTAAATTTATCAATAATCATGACATTACTGTATATAAATTGTTCTACAGAT DNA 2: ATCTGTAGAACAATTTATATACAGTAATGTCATGATTATTGATAAATTTAG,Kd,[2],636 nM
"AM5 (A1T, A4T, A22T) (dsDNA) DNA 1: CTAAATTTATCAATATTATTGACATTACTGTATATATATTGTTCTACAGAT DNA 2: ATCTGTAGAACAATATATATACAGTAATGTCAATAATATTGATAAATTTAG",binding result,[7],binds
AM3 (T18A) (dsDNA) DNA 1: CTAAATTTATCAATAATAATGACATTACTGTAAATAAATTGTTCTACAGAT DNA 2: ATCTGTAGAACAATTTATTTACAGTAATGTCATTATTATTGATAAATTTAG,binding result,[8],binds
"AM4 (A17C, T18A) (dsDNA) DNA 1: CTAAATTTATCAATAATAATGACATTACTGTCAATAAATTGTTCTACAGAT DNA 2: ATCTGTAGAACAATTTATTGACAGTAATGTCATTATTATTGATAAATTTAG",binding result,[8],binds
"AM2 (A4T, T18A) (dsDNA) DNA 1: CTAAATTTATCAATAATATTGACATTACTGTAAATAAATTGTTCTACAGAT DNA 2: ATCTGTAGAACAATTTATTTACAGTAATGTCAATATTATTGATAAATTTAG",binding result,[8],binds
AM6 (A4T) (dsDNA) DNA 1: CTAAATTTATCAATAATATTGACATTACTGTATATAAATTGTTCTACAGAT DNA 2: ATCTGTAGAACAATTTATATACAGTAATGTCAATATTATTGATAAATTTAG,binding result,[7],binds
AM1 (T2A) (dsDNA) DNA 1: CTAAATTTATCAATAAAAATGACATTACTGTATATAAATTGTTCTACAGAT DNA 2: ATCTGTAGAACAATTTATATACAGTAATGTCATTTTTATTGATAAATTTAG,Kd,[2],1690 nM
repDNA 51-bp probe (dsDNA) DNA 1: CTAAATTTATCAATATTATTGATAAAATTATCAATATATTGTTCTACAGAT DNA 2: ATCTGTAGAACAATATATTGATAATTTTATCAATAATATTGATAAATTTAG,Kd,[2],157 nM
same,Kd,[5],434 nM
same,Kd,[6],1060 nM
GC-rich control 51-bp (dsDNA) DNA 1: CTAAATTTATCAATACCGCGTCACGGAGGGGTGCGCCATTGTTCTACAGAT DNA 2: ATCTGTAGAACAATGGCGCACCCCTCCGTGACGCGGTATTGATAAATTTAG,binding result,[2],no binding
